Laboratory results: US7812117B2, “Vasostatin as marrow protectant” (The United States of America as represented by the …, priority 1998, dated 2010)

What was measured:
[1] = system: human Burkitt lymphoma cell line CA46; assay: CA46 tumor size and weight in irradiated BALB/c nu/nu mice treated with MBP or MBP-vaso; type: in vivo; conditions: 400 rad, CA46 s.c.; MBP 40 μg/mouse/day or MBP-vaso 60 μg/mouse/day s.c.
Experimental: To examine this further, 7 week old BALB/c nu/nu mice were first irradiated with 400 rad. After 24 hr, the mice were incoculated s.c. with the human Burkitt lymphoma cell line CA46. One group of mice (n=12) was treated s.c. with the control protein maltose binding protein (MBP, 40 μg/mouse/day), whereas another group (n=12) was treated s.c. with MBP-vaso (60 μg/mouse/day). Some of the mice from each group were killed on day 15, whereas the other mice were kept for up to 2.5 months.

[2] = system: murine Lin- bone marrow cells enriched with hematopoietic progenitors; assay: Proliferation of lineage-negative bone marrow population enriched for hematopoietic progenitors; type: cell-based, mouse
Experimental: FIG. 11 is a set of two bar graphs showing the proliferative responses of unseparated (FIG. 11A) and purified (FIG. 11B) bone marrow cell populations in response to vaso. Bone marrow cell populations, obtained from the femural cavities of C57BL/6NCR mice (9 weeks of age) were either used as such or were further purified by negative selection as lineage negative (CD5, CD45R, CD11b, Gr-1 and TER119) cells by magnetic cell depletion. Both cell populations were incubated (0.5×10^6 cells/ml) in culture medium supplemented with IL-3 (20 ng/ml) with or without vaso (10 μg/ml). Cell proliferation was measured by ^3H thymidine incorporation during the final 22 hr of a 4, 5 or 6-day (D) culture. Data shown reflects the mean of triplicate cultures.
The examples described above utilized unpurified populations of murine bone marrow cells derived from the femur. To characterize the cell or cells within the bone marrow cell population that are targets of stimulation by vaso, cell separation experiments were performed. […]
The effects of vaso were tested on this cell population that is enriched with murine hematopoietic cells, and compared with unseparated bone marrow populations. […] On days 4 and 5, cell proliferation was measured. […]

[3] = system: variety of cell and cell lines; assay: Proliferation of a variety of cells and cell lines (mononuclear cells, lymphoid, tumor lines, fibroblasts); type: cell-based, human; conditions: vaso 0.25 to 50 μg/ml
From the text: Human mononuclear cells, and mononuclear cells enriched for B or T cells, were used in proliferation assays in the presence of phytohemagglutinin(Sigma), pokeweed mitogen (Sigma) or Epstein-Barr virus (B95-8 strain), as described previously (Tosato et al., 1988). The lymphoblastoid cell line VDS-0, the Burkitt cell lines CA46, BL41, KK124, Ag876, SHO (Cherney et al., 1997), the T-cell line Molt-4 (ATCC), the Hodgkin's lymphoma cell line Hs445 (ATCC); the prostate adenocarcinoma cell lines TSU-Prl (from A. Passaniti, NIH, Baltimore, Md.), Du145 (ATCC), and PC3 (ATCC), and the acute promyelocytic leukemia cell line HL60 (ATCC) were cultured in RPMI 1640 medium with 10% heat-inactivated FCS (BioWhittaker), […] L-glutamine (Sigma) and 5 μg/ml gentamicin, and tested in 3-5 days proliferation assays at cell densities varying from 300 to 2400 cells/microwell. The neuroblastoma cell line SKNMC (ATCC) was cultured in EMEM medium BioWhittaker) with 10% heat inactivated FCS and gentamicin and tested for proliferation at 125-1000 cells/well. The lung adenocarcinoma cell line A549 (ATCC) was cultured in F-12 Nutrient Mixture (HAM, Gibco BRL) with 10% heat-inactivated FCS, gentamicin and tested for proliferation at 250-2000 cells/well. […]

B1: vaso: N-terminal domain of calreticulin (amino acids 1-180, SEQ ID NO:3); given as fusion protein with maltose binding protein, MBP-vaso (protein)
chain: EPAVYFKEQFLDGDGWTSRWIESKHKSDFGKFVLSSGKFYGDEEKDKGLQTSQDARFYALSASFEPFSNKGQTLVVQFTVKHEQNIDCGGGYVKLFPNSLDQTDMHGDSEYNIMFGPDICGPGTKKVHVIFNYKGKNVLINKDIRCKDDEFTHLYTLIVRPDNTYEVKIDNSQVESGSLE
modifications: Vasostatin
[1]
  tumor size: 0.67 cm^2
  tumor weight: 0.22 g
[2]; IL-3 alone or IL-3 together with IL-6 and Stem Cell Factor
  cell growth of murine bone marrow cells enriched for hematopoietic cells by negative selection: similarly stimulated cell growth
[2]; enriched marrow, vaso 10 μg/ml, IL-3 20 ng/ml
  increase in cell proliferation on day 5: 3.3 fold
[3]
  effects on proliferation of a variety of cell and cell lines: minimal stimulatory (or inhibitory) effects
